Data: US20040002582A1 (University of Texas, published 2004)
No end group written: not given here.

What was measured:
[1] = target: T1, POW-E-D3 (Powassan virus, UniProt Q04538 579-674)
T1 sequence: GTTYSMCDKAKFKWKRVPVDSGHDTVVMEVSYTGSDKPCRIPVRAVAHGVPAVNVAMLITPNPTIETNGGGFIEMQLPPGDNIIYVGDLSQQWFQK

[2] = target: T2, LGT virus (Langat virus, UniProt P29837 281-776); assay: cell-based or functional assay
T2 sequence: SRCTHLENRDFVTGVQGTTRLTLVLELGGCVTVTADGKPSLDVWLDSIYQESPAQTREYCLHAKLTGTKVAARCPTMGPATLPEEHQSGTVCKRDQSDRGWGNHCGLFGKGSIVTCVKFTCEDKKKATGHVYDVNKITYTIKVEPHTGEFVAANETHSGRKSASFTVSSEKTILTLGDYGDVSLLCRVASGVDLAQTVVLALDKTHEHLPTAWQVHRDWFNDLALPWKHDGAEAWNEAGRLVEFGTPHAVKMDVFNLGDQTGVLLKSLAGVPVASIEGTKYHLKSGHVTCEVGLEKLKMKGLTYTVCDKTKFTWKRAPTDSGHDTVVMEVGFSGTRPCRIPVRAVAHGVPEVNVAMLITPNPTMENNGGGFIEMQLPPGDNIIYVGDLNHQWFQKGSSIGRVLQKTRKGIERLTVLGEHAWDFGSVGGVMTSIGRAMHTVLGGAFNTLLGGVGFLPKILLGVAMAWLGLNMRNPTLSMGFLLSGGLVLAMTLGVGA

RCCHPQCKEGKKCR (designed binder, not fully specified; cysteine pairing not given here) [MP-100]
level of enrichment (ratio of enriched signal/library signal) [1]: > 1.5 ratio of enriched signal/library signal
reduction of viral titer in Vero cells at 24 hpi [2]: ~300 fold
reduction of viral titer in Vero cells at 36 hpi [2]: ~100 fold
